In the supplement of paper PMC9112550, “Optimization of the antimicrobial peptide Bac7 by deep mutational scanning” (BMC Biology, 2022):

The sequences below were run on Escherichia coli TOP10 (assay: shrunken log2 fold change of peptide-encoding DNA abundance (4.5 h post-induction vs induction); higher = less antimicrobial activity (less host growth inhibition)). Conditions: time post-induction: 4.5 h; library: site-saturation at positions 5, 18, 19, 20.
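Note: peptides expressed intracellularly from a pBAD plasmid library in pooled LB shake-flask culture, induced with 0.3% L-arabinose, DNA abundance read by NGS, three biological replicates, DESeq2 with apeglm shrinkage.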

Row | Sequence | shrunken log2 fold change
1 | RRIRPRPPRLPRPRPRPPLLPRP | 0.081
2 | RRIRNRPPRLPRPRPRPGVAPRP | 0.135
3 | RRIRVRPPRLPRPRPRPYHGPRP | -0.237
4 | RRIRRRPPRLPRPRPRPPYDPRP | 0.213
5 | RRIRYRPPRLPRPRPRPICIPRP | -0.08
6 | RRIRCRPPRLPRPRPRPFSSPRP | -0.24
7 | RRIRPRPPRLPRPRPRPNTPPRP | -0.153
8 | RRIRMRPPRLPRPRPRPFSYPRP | -0.029
9 | RRIRGRPPRLPRPRPRPRMRPRP | 1.38
10 | RRIRRRPPRLPRPRPRPMAPPRP | 0.665
11 | RRIRIRPPRLPRPRPRPQNYPRP | -0.428
12 | RRIRIRPPRLPRPRPRPHGQPRP | -0.0468
13 | RRIRLRPPRLPRPRPRPECLPRP | -0.00237
14 | RRIRCRPPRLPRPRPRPQIRPRP | -0.332
15 | RRIRYRPPRLPRPRPRPSRKPRP | 0.0647
16 | RRIRIRPPRLPRPRPRPGCGPRP | 0.349
17 | RRIRHRPPRLPRPRPRPGKVPRP | -0.0067
18 | RRIRCRPPRLPRPRPRPKLCPRP | 0.0418
19 | RRIRPRPPRLPRPRPRPRRSPRP | 0.124
20 | RRIRPRPPRLPRPRPRPQMGPRP | -0.0457
21 | RRIRIRPPRLPRPRPRPGWMPRP | 0.0116
22 | RRIRHRPPRLPRPRPRPICWPRP | 0.0429
23 | RRIRPRPPRLPRPRPRPNRHPRP | -0.0624
24 | RRIRRRPPRLPRPRPRPECYPRP | 0.368
25 | RRIRIRPPRLPRPRPRPAWDPRP | -0.0871

Row | Sequence | shrunken log2 fold change
26 | RRIRCRPPRLPRPRPRPHKEPRP | -0.334
27 | RRIRNRPPRLPRPRPRPDPKPRP | -0.00647
28 | RRIRGRPPRLPRPRPRPYNVPRP | -0.126
29 | RRIRYRPPRLPRPRPRPGWLPRP | 0.0173
30 | RRIRRRPPRLPRPRPRPKIQPRP | 0.0197
31 | RRIRMRPPRLPRPRPRPYSEPRP | 0.171
32 | RRIRSRPPRLPRPRPRPNLMPRP | -0.177
33 | RRIRGRPPRLPRPRPRPICPPRP | 0.114
34 | RRIRDRPPRLPRPRPRPAIVPRP | 0.41
35 | RRIRDRPPRLPRPRPRPNECPRP | 0.0169
36 | RRIRWRPPRLPRPRPRPMRIPRP | 0.222
37 | RRIRPRPPRLPRPRPRPPPQPRP | 0.963
38 | RRIRKRPPRLPRPRPRPVMMPRP | 0.155
39 | RRIRARPPRLPRPRPRPKRLPRP | 0.656
40 | RRIRGRPPRLPRPRPRPNQEPRP | 0.389
41 | RRIRYRPPRLPRPRPRPDVYPRP | -0.0212
42 | RRIRIRPPRLPRPRPRPPFGPRP | 0.255
43 | RRIRIRPPRLPRPRPRPFCTPRP | -0.542
44 | RRIRPRPPRLPRPRPRPMVHPRP | 0.137
45 | RRIRDRPPRLPRPRPRPLKGPRP | -0.0274
46 | RRIRHRPPRLPRPRPRPWWLPRP | -0.0295
47 | RRIRSRPPRLPRPRPRPEDSPRP | 0.00839
48 | RRIRPRPPRLPRPRPRPCEIPRP | 0.0471
49 | RRIRQRPPRLPRPRPRPLMTPRP | 0.0563
50 | RRIRNRPPRLPRPRPRPWRIPRP | 0.0411
